Kd, koff and kon data for 1 molecule are collected here from US20200031919A1 (SUZHOU KANOVA BIOPHARMACEUTICAL, published 2020).

For this assay, the target named is T1, human IL-17A (human, UniProt Q16552 24-155).
T1 construct: Commercial recombinant protein; also called hIL-17A; CTLA-8
T1 sequence (looked up): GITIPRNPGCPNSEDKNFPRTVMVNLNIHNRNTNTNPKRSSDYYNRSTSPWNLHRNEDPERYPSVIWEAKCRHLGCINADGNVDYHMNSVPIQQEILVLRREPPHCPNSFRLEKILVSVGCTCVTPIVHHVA
The assay can be described thus: SPR (Biacore T200), antibody captured by anti-human Fc, IL-17 as analyte. How it is done:
Anti-human Fc gamma specific antibody (Jackson Immuno Research, Lot no. 124448, Code. 109-008-098) was immobilized onto the sensor chip using amine coupling method. Four antibodies secreted to the culture medium plus the parental antibody were injected and captured by anti-human Fc antibody via Fc (capture phase) individually. After equilibration, IL-17 was injected for 300 seconds (association phase) followed by the injection of running buffer for 1200s (dissociation phase). Responses of reference flow cell (flow cell 1) were subtracted from those of humanized antibodies flow cells during each cycle. The surface was regenerated before the injection of another humanized antibody. The process was repeated until all antibodies are analyzed. The off-rates of humanized antibodies were obtained from fitting the experimental data locally to 1:1 interaction model using the Biacore T200 evaluation software. The antibodies were ranked by their dissociation rate constants (off-rates, Kd). The binders that interact with IL-17 with similar affinity to parental antibody were selected.
Background: Surface plasmon resonance follows binding to a sensor surface in real time, without labels.

B1: humanized anti-IL17A/F antibody VH1-1/VL2-1 (antibody, V domains shown)
VH: QFQLVQSGAEVKKPGASVKVSCKASGYTFTDYNLNWVRQAPGKGLEWMGVIHPDYGTTSYNQKFKDRVTMTVDTSTSTVYMELSSLRSEDTAVYYCVRYDYGDAMDYWGQGTLVTVSS
VL: DIVMTQTPLSSSVTLGQPASISCRSSQSLVHSNGNTYLHWLQQRPGQPPRLLIYKVSNRFSGVPDRFSGSGAGTDFTLKISRVEAEDVGVYYCSQSTHVPLTFGQGTKLEIK
notes: It was tested as a humanized IgG captured through its Fc by an anti-human Fc antibody
Usually Kd stands for the concentration at which binding is half-saturated. Read a high Kd as weaker binding. For orientation: koff means the rate constant with which the complex falls apart. Read a low koff as slow dissociation. In general, kon refers to the second-order rate constant of association. The low end stands for slow association, the high end for fast association. For the molecule B1, binding was put at a Kd of 0.84 nM, the dissociation rate constant (koff) is 0.0018 s⁻¹ and the kon was found to be 2.2e+06 M⁻¹ s⁻¹.
